Target: Bicistronic receptor WU76UB CD3E_CD3E_2B4_CD3Z_CD3G_CD3G_OX40
Assay: cell-based or functional assay

Bicistronic receptor WU76UB CD3E_CD3E_2B4_CD3Z_CD3G_CD3G_OX40, sequence (chain, as listed by the source limits assumed, form in doubt): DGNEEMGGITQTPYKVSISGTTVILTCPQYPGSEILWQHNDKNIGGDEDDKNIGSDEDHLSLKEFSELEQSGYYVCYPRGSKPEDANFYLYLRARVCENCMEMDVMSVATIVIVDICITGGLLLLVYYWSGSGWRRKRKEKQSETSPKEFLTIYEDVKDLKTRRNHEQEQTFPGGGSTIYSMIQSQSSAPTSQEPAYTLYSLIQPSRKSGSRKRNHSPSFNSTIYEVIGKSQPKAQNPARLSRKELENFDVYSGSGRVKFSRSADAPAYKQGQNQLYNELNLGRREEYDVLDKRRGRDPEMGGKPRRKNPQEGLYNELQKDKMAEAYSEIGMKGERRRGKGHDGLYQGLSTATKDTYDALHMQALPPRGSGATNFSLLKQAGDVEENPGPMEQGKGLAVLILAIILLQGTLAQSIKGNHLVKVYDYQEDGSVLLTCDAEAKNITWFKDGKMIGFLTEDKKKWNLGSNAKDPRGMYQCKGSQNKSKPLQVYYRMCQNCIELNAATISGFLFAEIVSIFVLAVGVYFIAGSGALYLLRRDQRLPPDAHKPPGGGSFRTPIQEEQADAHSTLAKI

Which fold change in p-S6 levels does the source give for Blinatumomab (bispecific antibody) here?
The fold change in p-S6 levels was 3 fold.

Reference: patent US20240173407A1
